Measurements published in publication PMC6447540.

Target: SAV1 (UniProt Q9H4B6)
Assay: biotin-peptide pull-down from cell lysate
Settings: reference: unphosphorylated Akt1 peptide; sites Y26

binding against the reference: weaker
Substance: Akt1 PH domain peptide (from UniProt P31749) pY26 Akt1 peptide
